From patent publication US6858428B2, “Human and animal cell culture medium containing antithrombin III for suppressing cell death” (Agency of Industrial Science and Technology, priority 1999, dated 2005) come the findings set out here.

Entries after “also recorded” stand apart in the source; their conditions may differ.

One experiment concerns hepatoma cell line HepG2. Nature of the experiment: Survival of hepatoma cell line HepG2 in serum-free culture (viable cell count after 3 days). The class given is cell-based. The following applies: for Survival rate: HepG2, DMEM without fetal bovine serum; for Effect in controlling cell death (in words): HepG2, serum-free medium. On the procedure: Two mL cell suspension of hepatoma cell line HepG2 dispersed in trypsin (5×10^5 cells) were inoculated on six multi-well plates and pre-culture by using Dulbecco's modified Eagle medium (DMEM) containing 5% fetal bovine serum, 1.6 g/L sodium hydrogencarbonate, 0.584 g/L L-glutamine, and 0.08 g/L kanamycin sulfate at 37° C. in a 5% CO2 gas phase. […] The viable cell count was assayed after 3 days of culture.
The hepatoma cell line HepG2 was pre-cultured in the same manner as in Example 1. After 1 day, the broth was recovered, the cell surfaces were washed with serum-free medium, and the culture was continued for another 3 days with the addition of medium containing 5%, 0% fetal bovine serum, or 2 mL of fresh medium comprising antithrombin III added in concentrations ranging from 1 to 25 μg/mL to media containing no fetal bovine serum (0%). The viable cell count was assayed after 3 days of culture.
The hepatoma cell line HepG2 was pre-cultured in the same manner as in Example 1. After 1 day, the broth was recovered, the cell surfaces were washed with serum-free medium, and the culture was continued for another 3 days with the addition of medium containing 5%, 0% fetal bovine serum, or 2 mL of fresh medium comprising antithrombin III or any of-various synthetic protease inhibitors given in Table 4 added to media containing no fetal bovine serum (0%). The viable cell count was assayed after 3 days of culture.

Another experiment deals with osteoblast cell line ROS. Nature of the experiment: Survival of osteoblast cell line ROS in serum-free culture (viable cell count after 3 days). In kind it is cell-based. The settings on record: ROS osteoblasts. As for the experimental part: Two mL cell suspension of osteoblast cell line ROS dispersed in trypsin (5×10^5 cells) were inoculated on six multi-well plates and pre-cultured by using Dulbecco's modified Eagle medium (DMEM) containing 10% fetal bovine serum, 1.6 g/L sodium hydrogencarbonate, 0.584 g/L L-glutamine, and 0.08 g/L kanamycin sulfate at 37° C. in a 5% CO2 gas phase. After one day, the broth was recovered, the cell surfaces were washed with serum-free medium, and the culture was continued for another 3 days with the addition of medium containing 10%, 0% fetal bovine serum, or 2 mL of fresh medium comprising 13 μg/mL antithrombin III added to media containing no fetal bovine serum (0%). The viable cell count was assayed after 3 days of culture.

B1: Antithrombin III: Lyophilized antithrombin III purified from bovine serum (protein, UniProt P41361 33-465, looked up)
Antithrombin-III: HRSPVEDVCTAKPRDIPVNPMCIYRSSEKKATEGQGSEQKIPGATNRRVWELSKANSHFATAFYQHLADSKNNNDNIFLSPLSISTAFAMTKLGACNNTLKQLMEVFKFDTISEKTSDQIHFFFAKLNCRLYRKANKSSELVSANRLFGGKSITFNETYQDISEVVYGAKLQPLDFKGNAEQSRLTINQWISNKTEGRITDVIPPQAINEFTVLVLVNTIYFKGLWKSKFSPENTRKELFYKADGESCSVLMMYQESKFRYRRVAESTQVLELPFKGDDITMVLILPKLEKTLAKVEQELTPDMLQEWLDELTETLLVVHMPRFRIEDSFSVKEQLQDMGLEDLFSPEKSRLPGIVAEGRSDLYVSDAFHKAFLEVNEEGSEAAASTVISIAGRSLNSDRVTFKANRPILVLIREVALNTIIFMGRVANPCVD
As to B1, the Survival rate with hepatoma cell line HepG2 (additive 1 μg/ml) stood at 68.6%; in the experiment with hepatoma cell line HepG2 (additive 2.5 μg/ml) it was 68.0%; in the experiment on hepatoma cell line HepG2 (additive 5 μg/ml) it was 74.1%; in the experiment on hepatoma cell line HepG2 (additive 10 μg/ml), 88.5%; in the experiment on hepatoma cell line HepG2 (additive 17.5 μg/ml), 93.3%; in the experiment with hepatoma cell line HepG2 (additive 25 μg/ml), 94.0%. Also, in the experiment on osteoblast cell line ROS (DMEM without fetal bovine serum, additive 13 μg/ml), the Survival rate was found to be 85.5%. For the same molecule, the “Effect in controlling cell death (in words)” value in the experiment with hepatoma cell line HepG2 (additive 1 μg/mL) is “cell death was suppressed”; in the experiment on hepatoma cell line HepG2 (additive 2.5 μg/mL (so in the source)), “virtually the same survival rate as a serum concentration of 5%”; in the experiment on hepatoma cell line HepG2 (additive 25 μg/mL), “highly effective in controlling cell death”; with hepatoma cell line HepG2 (concentration not given) it was “virtually the same survival rate as that of the medium with a 5% serum concentration; also recorded: considerably effective in controlling cell death”; with osteoblast cell line ROS (serum-free medium, additive 13 μg/mL) it was “considerably effective in controlling cell death”.

B2: EGF: growth factor reported as survival factor (protein, UniProt P01133 23-1207, looked up)
Pro-epidermal growth factor: PQHWSCPEGTLAGNGNSTCVGPAPFLIFSHGNSIFRIDTEGTNYEQLVVDAGVSVIMDFHYNEKRIYWVDLERQLLQRVFLNGSRQERVCNIEKNVSGMAINWINEEVIWSNQQEGIITVTDMKGNNSHILLSALKYPANVAVDPVERFIFWSSEVAGSLYRADLDGVGVKALLETSEKITAVSLDVLDKRLFWIQYNREGSNSLICSCDYDGGSVHISKHPTQHNLFAMSLFGDRIFYSTWKMKTIWIANKHTGKDMVRINLHSSFVPLGELKVVHPLAQPKAEDDTWEPEQKLCKLRKGNCSSTVCGQDLQSHLCMCAEGYALSRDRKYCEDVNECAFWNHGCTLGCKNTPGSYYCTCPVGFVLLPDGKRCHQLVSCPRNVSECSHDCVLTSEGPLCFCPEGSVLERDGKTCSGCSSPDNGGCSQLCVPLSPVSWECDCFPGYDLQLDEKSCAASGPQPFLLFANSQDIRHMHFDGTDYGTLLSQQMGMVYALDHDPVENKIYFAHTALKWIERANMDGSQRERLIEEGVDVPEGLAVDWIGRRFYWTDRGKSLIGRSDLNGKRSKIITKENISQPRGIAVHPMAKRLFWTDTGINPRIESSSLQGLGRLVIASSDLIWPSGITIDFLTDKLYWCDAKQSVIEMANLDGSKRRRLTQNDVGHPFAVAVFEDYVWFSDWAMPSVMRVNKRTGKDRVRLQGSMLKPSSLVVVHPLAKPGADPCLYQNGGCEHICKKRLGTAWCSCREGFMKASDGKTCLALDGHQLLAGGEVDLKNQVTPLDILSKTRVSEDNITESQHMLVAEIMVSDQDDCAPVGCSMYARCISEGEDATCQCLKGFAGDGKLCSDIDECEMGVPVCPPASSKCINTEGGYVCRCSEGYQGDGIHCLDIDECQLGEHSCGENASCTNTEGGYTCMCAGRLSEPGLICPDSTPPPHLREDDHHYSVRNSDSECPLSHDGYCLHDGVCMYIEALDKYACNCVVGYIGERCQYRDLKWWELRHAGHGQQQKVIVVAVCVVVLVMLLLLSLWGAHYYRTQKLLSKNPKNPYEESSRDVRSRRPADTEDGMSSCPQPWFVVIKEHQDLKNGGQPVAGEDGQAADGSMQPTSWRQEPQLCGMGTEQGCWIPVSSDKGSCPQVMERSFHMPSYGTQTLEGGVEKPHSLLSANPLWQQRALDPPHQMELTQ
modifications: Pro-epidermal growth factor
In the experiment on hepatoma cell line HepG2 (additive 50 ng/ml), B2 displayed a Survival rate of 54.7%.
